Assay results: article PMC5449627

Biological target: AGO2 (Argonaute 2) (UniProt Q9UKV8)
Assay: single-molecule FRET
Details: guide 5' phosphate; internal amino-C6 U18; single-molecule FRET on immobilized biotinylated target RNA; 100 nM AUF1 where added; buffer, salt, pH and temperature not in the material

AGO2 (Argonaute 2), sequence (Q9UKV8 whole entry): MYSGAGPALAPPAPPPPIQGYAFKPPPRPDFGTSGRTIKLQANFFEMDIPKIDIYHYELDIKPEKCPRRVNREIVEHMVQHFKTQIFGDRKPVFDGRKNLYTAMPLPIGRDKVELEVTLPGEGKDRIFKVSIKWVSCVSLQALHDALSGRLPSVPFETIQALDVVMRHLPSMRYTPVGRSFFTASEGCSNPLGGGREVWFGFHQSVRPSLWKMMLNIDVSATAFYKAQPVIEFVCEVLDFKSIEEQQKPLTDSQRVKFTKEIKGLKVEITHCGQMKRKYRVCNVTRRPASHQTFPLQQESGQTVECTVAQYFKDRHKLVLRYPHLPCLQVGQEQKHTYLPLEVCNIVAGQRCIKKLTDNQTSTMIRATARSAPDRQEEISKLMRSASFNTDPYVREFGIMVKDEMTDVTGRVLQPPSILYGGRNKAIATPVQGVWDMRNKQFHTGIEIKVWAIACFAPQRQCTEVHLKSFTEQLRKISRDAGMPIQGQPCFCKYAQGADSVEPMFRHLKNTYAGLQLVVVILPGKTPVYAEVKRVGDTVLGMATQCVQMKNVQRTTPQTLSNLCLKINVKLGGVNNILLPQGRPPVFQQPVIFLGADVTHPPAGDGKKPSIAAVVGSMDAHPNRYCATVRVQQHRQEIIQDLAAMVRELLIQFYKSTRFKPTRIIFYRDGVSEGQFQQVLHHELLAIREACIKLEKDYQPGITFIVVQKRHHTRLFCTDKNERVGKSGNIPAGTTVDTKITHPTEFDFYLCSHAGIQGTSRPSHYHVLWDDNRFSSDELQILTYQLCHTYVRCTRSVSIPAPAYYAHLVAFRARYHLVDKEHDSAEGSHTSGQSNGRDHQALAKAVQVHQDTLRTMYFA

| Sequence | binding signal (% decrease of binding rate) |
| --- | --- |
| UGAGGUAGUAGGUUGUGUGGUU / UAACCACACUGUUGACUACCUCACCCCCCCCCCCCCCCC [let-7b guide / POLR2D RNA with let-7b WT] | 42 |
| UGAGGUAGUAGGUUGUGUGGUU / UAACCACACUGUUGACUACCUCAUUCCUGGUUUUUGGCCUCCACAUCAUCUUUUUUCUUAAUAUUUCAUCCCCCCCCCCCCCCCC [let-7b guide / POLR2D RNA with let-7b WT and AUF1 site] | 78 |
